The text below walks through data of patent publication US9303076B2, “Cell-penetrating peptides and uses thereof” (Hoffmann-La Roche Inc., priority 2010, dated 2016).

For this experiment, the target named is T1, recombinant BCL2 (Homo sapiens, UniProt P10415).
T1 construct: purchased Calbiochem/Merck, Darmstadt, Germany
Nature of the experiment: BCL2 binding to bead-immobilized peptides. The following applies: iodoacetyl beads, elution buffer pH 2.8, protein stain. On the procedure:
In order to determine whether the BCL2 binding properties of the Nur77-derived peptide are maintained in the NurNRTN fusion peptide, the respective NurNRTN and NRTN peptides were coupled to iodoacetyl beads (Pierce Biotechnology, Inc., Rockford, Ill., USA). The beads were incubated with recombinant BCL2 (Calbiochem/Merck, Darmstadt, Germany) and washed with PBS and 0.5 M NaCl, 0.025 NaN3, 0.05% Tween20 to remove unbound protein. Specific binding of BCL2 to the immobilized NurNTRN fusion peptide was determined by eluting bound […] from the beads with elution buffer (pH 2.8), transfer of the eluted fraction to nitrocellulose (Invitrogen Corporation, Carlsbad, Calif., USA), and protein detection by means of the MemCode Reversible Protein Stain Kit (Pierce Biotechnology, Inc., Rockford, Ill., USA).

T1 sequence (P10415 whole entry): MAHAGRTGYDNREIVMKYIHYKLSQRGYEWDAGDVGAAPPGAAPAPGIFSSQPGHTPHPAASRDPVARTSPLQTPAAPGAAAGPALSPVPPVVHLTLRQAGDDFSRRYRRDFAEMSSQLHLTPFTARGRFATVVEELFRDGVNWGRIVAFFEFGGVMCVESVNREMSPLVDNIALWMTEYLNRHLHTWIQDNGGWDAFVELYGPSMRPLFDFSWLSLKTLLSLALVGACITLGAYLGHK

Consider “GAAEAAARVYDLGLRRLRQRRRLRRERVRA (NRTN peptide sequence; listed as Homo sapiens) [peptide derived from human neurturin]”, for which the “BCL2 in eluates from peptide-coated beads” value was “very small amounts of BCL2 were eluted”.
